Measurements as given in paper PMC10421740, “A universal deep-learning model for zinc finger design enables transcription factor reprogramming”.

Columns and labels:
[1] = target: ZFN pair Astr 30ABC + Astr 30FED (synthetic construct, UniProt P14870;P14870 384-579;384-579); test: Zn; U2OS eGFP disruption, 3 days after nucleofection; conditions: tags: N-terminal 3xFLAG and SV40 NLS (kept in the assay, left out here); copies: 1;1
[2] = target: ZFN pair Astr 28ABC + Astr 28FED (synthetic construct, UniProt P14870;P14870 384-579;384-579); test: as above; conditions: tags: N-terminal 3xFLAG and SV40 NLS (kept in the assay, left out here); copies: 1;1
[3] = target: ZFN pair Astr 23ABC + Astr 23FED (synthetic construct, UniProt P14870;P14870 384-579;384-579); test: as above; conditions: tags: N-terminal 3xFLAG and SV40 NLS (kept in the assay, left out here); copies: 1;1
Sequence of ZFN pair Astr 23ABC + Astr 23FED (P14870 other isoform, or with tags, fused parts or gaps, chain 1 of 2): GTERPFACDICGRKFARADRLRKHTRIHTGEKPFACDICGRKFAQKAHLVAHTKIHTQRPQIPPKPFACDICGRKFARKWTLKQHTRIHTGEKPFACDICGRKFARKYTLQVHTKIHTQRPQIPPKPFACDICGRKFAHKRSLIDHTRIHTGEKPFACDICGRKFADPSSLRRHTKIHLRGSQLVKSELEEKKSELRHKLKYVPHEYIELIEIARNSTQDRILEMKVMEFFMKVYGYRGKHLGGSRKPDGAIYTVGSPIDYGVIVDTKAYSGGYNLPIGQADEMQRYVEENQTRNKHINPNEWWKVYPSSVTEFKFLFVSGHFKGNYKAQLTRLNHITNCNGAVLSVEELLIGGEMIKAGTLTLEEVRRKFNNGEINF
Sequence of ZFN pair Astr 23ABC + Astr 23FED (P14870 other isoform, or with tags, fused parts or gaps, chain 2 of 2): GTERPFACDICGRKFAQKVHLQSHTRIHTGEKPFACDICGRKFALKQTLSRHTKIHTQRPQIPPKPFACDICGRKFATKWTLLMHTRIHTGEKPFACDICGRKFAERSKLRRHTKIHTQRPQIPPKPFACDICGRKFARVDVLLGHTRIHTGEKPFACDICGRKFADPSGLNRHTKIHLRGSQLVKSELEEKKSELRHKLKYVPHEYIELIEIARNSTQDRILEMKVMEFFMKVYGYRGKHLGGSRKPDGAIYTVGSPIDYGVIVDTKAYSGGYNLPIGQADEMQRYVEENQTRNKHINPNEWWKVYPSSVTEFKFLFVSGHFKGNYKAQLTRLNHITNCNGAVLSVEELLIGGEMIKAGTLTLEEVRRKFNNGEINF

[4] = target: ZFN pair Astr 25ABC + Astr 25FED (synthetic construct, UniProt P14870;P14870 384-579;384-579); test: as above; conditions: tags: N-terminal 3xFLAG and SV40 NLS (kept in the assay, left out here); copies: 1;1
[5] = target: ZFN pair Astr 29ABC + Astr 29FED (synthetic construct, UniProt P14870;P14870 384-579;384-579); test: as above; conditions: tags: N-terminal 3xFLAG and SV40 NLS (kept in the assay, left out here); copies: 1;1
[6] = target: ZFN pair Astr 20ABC + Astr 20FED (synthetic construct, UniProt P14870;P14870 384-579;384-579); test: as above; conditions: tags: N-terminal 3xFLAG and SV40 NLS (kept in the assay, left out here); copies: 1;1
Sequence of ZFN pair Astr 20ABC + Astr 20FED (P14870 other isoform, or with tags, fused parts or gaps, chain 1 of 2): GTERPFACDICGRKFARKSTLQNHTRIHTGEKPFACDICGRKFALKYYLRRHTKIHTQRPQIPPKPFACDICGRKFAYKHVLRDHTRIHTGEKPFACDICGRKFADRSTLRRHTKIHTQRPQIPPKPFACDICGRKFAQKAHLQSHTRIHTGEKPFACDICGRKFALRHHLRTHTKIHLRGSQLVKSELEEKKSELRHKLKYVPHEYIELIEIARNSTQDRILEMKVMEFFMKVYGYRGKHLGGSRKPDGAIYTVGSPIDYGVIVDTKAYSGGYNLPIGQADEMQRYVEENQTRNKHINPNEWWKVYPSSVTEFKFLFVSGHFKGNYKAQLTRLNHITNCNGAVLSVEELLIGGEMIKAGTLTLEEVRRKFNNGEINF
Sequence of ZFN pair Astr 20ABC + Astr 20FED (P14870 other isoform, or with tags, fused parts or gaps, chain 2 of 2): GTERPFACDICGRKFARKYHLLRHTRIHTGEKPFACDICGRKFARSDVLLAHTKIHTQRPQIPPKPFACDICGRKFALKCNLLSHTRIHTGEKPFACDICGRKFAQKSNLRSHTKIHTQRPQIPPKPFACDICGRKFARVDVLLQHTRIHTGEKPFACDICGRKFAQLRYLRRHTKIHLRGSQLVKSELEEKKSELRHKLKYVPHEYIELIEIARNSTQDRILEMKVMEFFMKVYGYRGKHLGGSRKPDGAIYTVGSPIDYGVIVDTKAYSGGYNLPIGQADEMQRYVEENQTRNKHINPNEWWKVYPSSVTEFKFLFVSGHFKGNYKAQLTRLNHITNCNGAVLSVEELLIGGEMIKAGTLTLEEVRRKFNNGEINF

[7] = target: ZFN pair Astr 12ABC + Astr 12FED (synthetic construct, UniProt P14870;P14870 384-579;384-579); test: as above; conditions: tags: N-terminal 3xFLAG and SV40 NLS (kept in the assay, left out here); copies: 1;1
[8] = target: ZFN pair Astr 27ABC + Astr 27FED (synthetic construct, UniProt P14870;P14870 384-579;384-579); test: as above; conditions: tags: N-terminal 3xFLAG and SV40 NLS (kept in the assay, left out here); copies: 1;1
[9] = target: ZFN pair Astr 26ABC + Astr 26FED (synthetic construct, UniProt P14870;P14870 384-579;384-579); test: as above; conditions: tags: N-terminal 3xFLAG and SV40 NLS (kept in the assay, left out here); copies: 1;1
[10] = target: ZFN pair Astr 24ABC + Astr 24FED (synthetic construct, UniProt P14870;P14870 384-579;384-579); test: as above; conditions: tags: N-terminal 3xFLAG and SV40 NLS (kept in the assay, left out here); copies: 1;1
Sequence of ZFN pair Astr 24ABC + Astr 24FED (P14870 other isoform, or with tags, fused parts or gaps, chain 1 of 2): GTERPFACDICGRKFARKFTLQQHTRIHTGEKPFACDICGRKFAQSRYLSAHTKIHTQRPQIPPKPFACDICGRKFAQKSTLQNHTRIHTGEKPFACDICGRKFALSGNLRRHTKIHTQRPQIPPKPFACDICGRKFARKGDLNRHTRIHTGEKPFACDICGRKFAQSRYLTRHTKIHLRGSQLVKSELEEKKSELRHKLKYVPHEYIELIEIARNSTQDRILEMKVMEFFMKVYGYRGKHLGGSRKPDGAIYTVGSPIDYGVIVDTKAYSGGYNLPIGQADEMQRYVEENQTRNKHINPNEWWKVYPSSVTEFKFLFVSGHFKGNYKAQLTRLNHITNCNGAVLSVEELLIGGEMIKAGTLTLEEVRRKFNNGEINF
Sequence of ZFN pair Astr 24ABC + Astr 24FED (P14870 other isoform, or with tags, fused parts or gaps, chain 2 of 2): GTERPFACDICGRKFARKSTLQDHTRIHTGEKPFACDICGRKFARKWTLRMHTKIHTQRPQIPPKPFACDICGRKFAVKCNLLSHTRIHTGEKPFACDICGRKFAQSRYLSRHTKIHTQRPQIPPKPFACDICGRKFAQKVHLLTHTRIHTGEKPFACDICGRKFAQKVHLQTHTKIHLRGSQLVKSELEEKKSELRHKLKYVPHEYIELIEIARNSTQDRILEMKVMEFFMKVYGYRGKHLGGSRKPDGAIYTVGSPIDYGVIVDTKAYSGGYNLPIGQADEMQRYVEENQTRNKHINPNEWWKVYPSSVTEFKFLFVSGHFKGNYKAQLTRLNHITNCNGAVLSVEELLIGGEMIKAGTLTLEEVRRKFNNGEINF

[11] = target: ZFN pair Astr 18ABC + Astr 18FED (synthetic construct, UniProt P14870;P14870 384-579;384-579); test: as above; conditions: tags: N-terminal 3xFLAG and SV40 NLS (kept in the assay, left out here); copies: 1;1
Sequence of ZFN pair Astr 18ABC + Astr 18FED (P14870 other isoform, or with tags, fused parts or gaps, chain 1 of 2): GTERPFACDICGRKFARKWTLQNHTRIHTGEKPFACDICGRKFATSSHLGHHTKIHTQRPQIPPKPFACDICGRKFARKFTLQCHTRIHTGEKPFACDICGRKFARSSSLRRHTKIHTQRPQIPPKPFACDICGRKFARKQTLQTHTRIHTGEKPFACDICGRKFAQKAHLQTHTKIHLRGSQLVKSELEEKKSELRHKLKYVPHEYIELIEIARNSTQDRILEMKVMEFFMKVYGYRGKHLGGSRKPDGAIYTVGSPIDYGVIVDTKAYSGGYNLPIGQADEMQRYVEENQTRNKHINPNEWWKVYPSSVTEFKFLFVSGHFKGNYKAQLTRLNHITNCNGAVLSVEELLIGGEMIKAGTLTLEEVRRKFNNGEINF
Sequence of ZFN pair Astr 18ABC + Astr 18FED (P14870 other isoform, or with tags, fused parts or gaps, chain 2 of 2): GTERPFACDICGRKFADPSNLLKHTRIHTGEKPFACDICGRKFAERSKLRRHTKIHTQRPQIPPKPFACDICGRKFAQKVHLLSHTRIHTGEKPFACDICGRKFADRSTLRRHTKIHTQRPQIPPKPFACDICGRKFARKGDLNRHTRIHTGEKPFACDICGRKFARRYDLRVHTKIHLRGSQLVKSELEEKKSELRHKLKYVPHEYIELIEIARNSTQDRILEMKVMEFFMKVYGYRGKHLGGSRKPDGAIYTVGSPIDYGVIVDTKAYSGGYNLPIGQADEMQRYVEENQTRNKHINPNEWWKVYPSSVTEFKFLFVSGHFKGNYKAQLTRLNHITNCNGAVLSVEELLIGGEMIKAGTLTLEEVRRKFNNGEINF

[12] = target: ZFN pair Astr 31ABC + Astr 31FED (synthetic construct, UniProt P14870;P14870 384-579;384-579); test: as above; conditions: tags: N-terminal 3xFLAG and SV40 NLS (kept in the assay, left out here); copies: 1;1
[13] = target: ZFN pair Astr 22ABC + Astr 22FED (synthetic construct, UniProt P14870;P14870 384-579;384-579); test: as above; conditions: tags: N-terminal 3xFLAG and SV40 NLS (kept in the assay, left out here); copies: 1;1
[14] = target: ZFN pair Astr 10ABC + Astr 10FED (synthetic construct, UniProt P14870;P14870 384-579;384-579); test: as above; conditions: tags: N-terminal 3xFLAG and SV40 NLS (kept in the assay, left out here); copies: 1;1
Sequence of ZFN pair Astr 10ABC + Astr 10FED (P14870 other isoform, or with tags, fused parts or gaps, chain 1 of 2): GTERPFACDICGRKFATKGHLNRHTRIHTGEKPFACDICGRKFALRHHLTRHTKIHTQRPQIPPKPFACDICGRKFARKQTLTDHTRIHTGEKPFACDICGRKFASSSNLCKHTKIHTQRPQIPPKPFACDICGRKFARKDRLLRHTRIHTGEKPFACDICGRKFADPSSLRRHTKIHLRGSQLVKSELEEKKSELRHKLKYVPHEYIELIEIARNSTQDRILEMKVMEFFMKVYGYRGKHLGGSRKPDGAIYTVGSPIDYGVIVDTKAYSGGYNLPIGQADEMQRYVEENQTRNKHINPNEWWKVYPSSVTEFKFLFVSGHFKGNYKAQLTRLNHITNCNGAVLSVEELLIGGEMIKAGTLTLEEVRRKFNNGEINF
Sequence of ZFN pair Astr 10ABC + Astr 10FED (P14870 other isoform, or with tags, fused parts or gaps, chain 2 of 2): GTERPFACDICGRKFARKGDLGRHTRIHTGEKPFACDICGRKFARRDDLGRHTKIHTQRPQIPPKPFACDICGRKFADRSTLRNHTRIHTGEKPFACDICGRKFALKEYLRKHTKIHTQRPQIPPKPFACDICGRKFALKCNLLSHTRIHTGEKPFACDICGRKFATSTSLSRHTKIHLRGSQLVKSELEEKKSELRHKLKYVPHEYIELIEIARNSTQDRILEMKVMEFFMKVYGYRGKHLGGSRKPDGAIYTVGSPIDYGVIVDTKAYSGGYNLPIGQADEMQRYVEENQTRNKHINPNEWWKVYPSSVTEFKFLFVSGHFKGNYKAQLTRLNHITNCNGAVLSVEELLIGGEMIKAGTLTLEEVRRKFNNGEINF

[15] = target: ZFN pair Astr 1ABC + Astr 1FED (synthetic construct, UniProt P14870;P14870 384-579;384-579); test: as above; conditions: tags: N-terminal 3xFLAG and SV40 NLS (kept in the assay, left out here); copies: 1;1
[16] = target: ZFN pair Astr 2ABC + Astr 2FED (synthetic construct, UniProt P14870;P14870 384-579;384-579); test: as above; conditions: tags: N-terminal 3xFLAG and SV40 NLS (kept in the assay, left out here); copies: 1;1
Sequence of ZFN pair Astr 2ABC + Astr 2FED (P14870 other isoform, or with tags, fused parts or gaps, chain 1 of 2): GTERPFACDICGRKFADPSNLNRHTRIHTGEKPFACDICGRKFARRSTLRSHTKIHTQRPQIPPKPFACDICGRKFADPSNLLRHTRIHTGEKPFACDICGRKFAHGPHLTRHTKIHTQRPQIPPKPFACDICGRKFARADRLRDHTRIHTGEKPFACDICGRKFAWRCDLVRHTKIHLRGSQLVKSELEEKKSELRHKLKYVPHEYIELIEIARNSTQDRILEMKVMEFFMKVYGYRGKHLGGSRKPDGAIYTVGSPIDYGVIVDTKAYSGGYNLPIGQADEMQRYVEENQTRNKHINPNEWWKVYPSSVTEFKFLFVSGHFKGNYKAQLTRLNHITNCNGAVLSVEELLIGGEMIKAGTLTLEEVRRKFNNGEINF
Sequence of ZFN pair Astr 2ABC + Astr 2FED (P14870 other isoform, or with tags, fused parts or gaps, chain 2 of 2): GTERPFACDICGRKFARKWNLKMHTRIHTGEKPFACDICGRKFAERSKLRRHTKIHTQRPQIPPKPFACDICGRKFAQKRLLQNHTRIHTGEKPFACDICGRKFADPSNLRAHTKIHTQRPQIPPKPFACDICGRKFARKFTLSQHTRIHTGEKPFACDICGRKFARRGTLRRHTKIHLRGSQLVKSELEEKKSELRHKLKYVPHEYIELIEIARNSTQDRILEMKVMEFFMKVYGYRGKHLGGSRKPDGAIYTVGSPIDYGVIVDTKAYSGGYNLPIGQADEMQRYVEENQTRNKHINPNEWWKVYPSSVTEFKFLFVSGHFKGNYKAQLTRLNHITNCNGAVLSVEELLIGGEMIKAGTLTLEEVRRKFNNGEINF

[17] = target: T1, KLF6 reprogrammed with array Tet1 For (synthetic construct, UniProt Q99612 1-199); test: Zn; HEK293T, 7x tetO minimal CMV GFP reporter
T1 chain: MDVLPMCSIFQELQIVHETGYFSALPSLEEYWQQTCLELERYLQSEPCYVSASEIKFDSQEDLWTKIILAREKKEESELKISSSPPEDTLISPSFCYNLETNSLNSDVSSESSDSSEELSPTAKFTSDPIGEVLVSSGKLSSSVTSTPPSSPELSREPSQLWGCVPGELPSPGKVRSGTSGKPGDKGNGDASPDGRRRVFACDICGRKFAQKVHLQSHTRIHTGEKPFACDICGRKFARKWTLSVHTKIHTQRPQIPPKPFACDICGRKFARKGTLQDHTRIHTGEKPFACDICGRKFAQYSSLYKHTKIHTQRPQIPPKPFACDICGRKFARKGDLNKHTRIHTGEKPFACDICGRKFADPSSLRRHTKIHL

[18] = target: T2, KLF6 reprogrammed with array Tet2 For (synthetic construct, UniProt Q99612 1-199); test: Zn; HEK293T, 7x tetO minimal CMV GFP reporter
T2 chain: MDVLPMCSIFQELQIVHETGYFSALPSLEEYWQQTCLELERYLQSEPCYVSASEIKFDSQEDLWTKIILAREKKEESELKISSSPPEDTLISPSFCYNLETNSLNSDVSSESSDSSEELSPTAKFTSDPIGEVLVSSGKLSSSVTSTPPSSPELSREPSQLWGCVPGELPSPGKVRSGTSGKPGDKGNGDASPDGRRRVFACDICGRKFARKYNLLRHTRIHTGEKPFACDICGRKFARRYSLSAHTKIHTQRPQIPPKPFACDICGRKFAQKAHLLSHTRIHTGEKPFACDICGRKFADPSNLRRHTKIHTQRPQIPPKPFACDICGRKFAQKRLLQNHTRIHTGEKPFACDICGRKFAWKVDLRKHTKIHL

[19] = target: ZIM3 reprogrammed with array Tet1 For (synthetic construct, UniProt Q96PE6 1-166); test: Zn; HEK293T, 7x tetO CMV eGFP reporter
Sequence of ZIM3 reprogrammed with array Tet1 For (Q96PE6 other isoform, or with tags, fused parts or gaps): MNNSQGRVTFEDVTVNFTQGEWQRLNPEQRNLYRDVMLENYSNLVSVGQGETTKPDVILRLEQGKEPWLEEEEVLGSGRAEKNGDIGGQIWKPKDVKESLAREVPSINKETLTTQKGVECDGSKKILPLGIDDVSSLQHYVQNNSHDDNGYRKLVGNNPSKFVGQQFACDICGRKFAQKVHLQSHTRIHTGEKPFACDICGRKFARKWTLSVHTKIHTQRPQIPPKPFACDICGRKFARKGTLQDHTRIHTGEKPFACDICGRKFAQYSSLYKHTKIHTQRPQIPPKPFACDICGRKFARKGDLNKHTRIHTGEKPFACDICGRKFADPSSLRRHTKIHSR

[20] = target: ZIM3 reprogrammed with array Tet2 For (synthetic construct, UniProt Q96PE6 1-166); test: Zn; HEK293T, 7x tetO CMV eGFP reporter

B1: eGFP site 30 (12 fingers) (dsDNA)
DNA 1: CAAGGGCGAGGAGCTGTTCACCGGGGTGGTGCCCATCCTGGTCGAGCT
DNA 2: AGCTCGACCAGGATGGGCACCACCCCGGTGAACAGCTCCTCGCCCTTG
binding signal [1]: ~14 % GFP-negative cells (higher = more activity)

B2: eGFP site 28 (12 fingers) (dsDNA)
DNA 1: TCCAGGAGCGCACCATCTTCTTCAAGGACGACGGCAACTACAAGACCC
DNA 2: GGGTCTTGTAGTTGCCGTCGTCCTTGAAGAAGATGGTGCGCTCCTGGA
binding signal [2]: ~32 % GFP-negative cells (higher = more activity)

B3: eGFP site 23 (12 fingers) (dsDNA)
DNA 1: GGCATCGACTTCAAGGAGGACGGCAACATCCTGGGGCACAAGCTGGAG
DNA 2: CTCCAGCTTGTGCCCCAGGATGTTGCCGTCCTCCTTGAAGTCGATGCC
binding signal [3]: ~35 % GFP-negative cells (higher = more activity)

B4: eGFP site 25 (12 fingers) (dsDNA)
DNA 1: GCGAGGGCGAGGGCGATGCCACCTACGGCAAGCTGACCCTGAAGTTCA
DNA 2: TGAACTTCAGGGTCAGCTTGCCGTAGGTGGCATCGCCCTCGCCCTCGC
binding signal [4]: ~39 % GFP-negative cells (higher = more activity)

B5: eGFP site 29 (12 fingers) (dsDNA)
DNA 1: CGGCCACAAGTTCAGCGTGTCCGGCGAGGGCGAGGGCGATGCCACCTA
DNA 2: TAGGTGGCATCGCCCTCGCCCTCGCCGGACACGCTGAACTTGTGGCCG
binding signal [5]: ~40 % GFP-negative cells (higher = more activity)

B6: eGFP site 20 (12 fingers) (dsDNA)
DNA 1: TCGAGCTGAAGGGCATCGACTTCAAGGAGGACGGCAACATCCTGGGGC
DNA 2: GCCCCAGGATGTTGCCGTCCTCCTTGAAGTCGATGCCCTTCAGCTCGA
binding signal [6]: ~42 % GFP-negative cells (higher = more activity)

B7: eGFP site 12 (12 fingers) (dsDNA)
DNA 1: TGACCCTGAAGTTCATCTGCACCACCGGCAAGCTGCCCGTGCCCTGGC
DNA 2: GCCAGGGCACGGGCAGCTTGCCGGTGGTGCAGATGAACTTCAGGGTCA
binding signal [7]: ~43 % GFP-negative cells (higher = more activity)

B8: eGFP site 27 (12 fingers) (dsDNA)
DNA 1: TCCTGGGGCACAAGCTGGAGTACAACTACAACAGCCACAACGTCTATA
DNA 2: TATAGACGTTGTGGCTGTTGTAGTTGTACTCCAGCTTGTGCCCCAGGA
binding signal [8]: ~46 % GFP-negative cells (higher = more activity)

B9: eGFP site 26 (12 fingers) (dsDNA)
DNA 1: CCGCGCCGAGGTGAAGTTCGAGGGCGACACCCTGGTGAACCGCATCGA
DNA 2: TCGATGCGGTTCACCAGGGTGTCGCCCTCGAACTTCACCTCGGCGCGG
binding signal [9]: ~47 % GFP-negative cells (higher = more activity)

B10: eGFP site 24 (12 fingers) (dsDNA)
DNA 1: ACAACGTCTATATCATGGCCGACAAGCAGAAGAACGGCATCAAGGTGA
DNA 2: TCACCTTGATGCCGTTCTTCTGCTTGTCGGCCATGATATAGACGTTGT
binding signal [10]: ~52 % GFP-negative cells (higher = more activity)

B11: eGFP site 18 (12 fingers) (dsDNA)
DNA 1: ACATGAAGCAGCACGACTTCTTCAAGTCCGCCATGCCCGAAGGCTACG
DNA 2: CGTAGCCTTCGGGCATGGCGGACTTGAAGAAGTCGTGCTGCTTCATGT
binding signal [11]: ~71 % GFP-negative cells (higher = more activity)

B12: eGFP site 31 (12 fingers) (dsDNA)
DNA 1: GGCAAGCTGACCCTGAAGTTCATCTGCACCACCGGCAAGCTGCCCGTG
DNA 2: CACGGGCAGCTTGCCGGTGGTGCAGATGAACTTCAGGGTCAGCTTGCC
binding signal [12]: ~72 % GFP-negative cells (higher = more activity)

B13: eGFP site 22 (12 fingers) (dsDNA)
DNA 1: CAAGTTCAGCGTGTCCGGCGAGGGCGAGGGCGATGCCACCTACGGCAA
DNA 2: TTGCCGTAGGTGGCATCGCCCTCGCCCTCGCCGGACACGCTGAACTTG
binding signal [13]: ~73 % GFP-negative cells (higher = more activity)

B14: eGFP site 10 (12 fingers) (dsDNA)
DNA 1: TGCCACCTACGGCAAGCTGACCCTGAAGTTCATCTGCACCACCGGCAA
DNA 2: TTGCCGGTGGTGCAGATGAACTTCAGGGTCAGCTTGCCGTAGGTGGCA
binding signal [14]: ~78 % GFP-negative cells (higher = more activity)

B15: eGFP site 1 (12 fingers) (dsDNA)
DNA 1: GAGGAGCTGTTCACCGGGGTGGTGCCCATCCTGGTCGAGCTGGACGGC
DNA 2: GCCGTCCAGCTCGACCAGGATGGGCACCACCCCGGTGAACAGCTCCTC
binding signal [15]: ~85 % GFP-negative cells (higher = more activity)

B16: eGFP site 2 (12 fingers) (dsDNA)
DNA 1: AGTTCAGCGTGTCCGGCGAGGGCGAGGGCGATGCCACCTACGGCAAGC
DNA 2: GCTTGCCGTAGGTGGCATCGCCCTCGCCCTCGCCGGACACGCTGAACT
binding signal [16]: ~90 % GFP-negative cells (higher = more activity)

B17: tetO (dsDNA)
DNA 1: GTCTCTATCACTGATAGGGAGA
DNA 2: TCTCCCTATCAGTGATAGAGAC
binding signal [17]: ~9500 mean GFP fluorescence (higher = more activity)
binding signal [18]: ~15500 mean GFP fluorescence (higher = more activity)
binding signal [19]: ~0.68 normalised eGFP fluorescence (lower = more activity, repressor)
binding signal [20]: ~0.51 normalised eGFP fluorescence (lower = more activity, repressor)
